B1: RSPH3 (parent)
chain: LELQRQREARKRALARKQAQEQLR

For 94 variants, protein stability index results are on record in the supplement of paper PMC10567573.
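Note: lentivirally expressed fusions sorted by FACS into six bins by GFP to DsRed ratio, PSI derived from sequencing read proportions per bin multiplied by bin number.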

In this data set the parent is B1. Nature of the data set: protein stability index of a GFP-peptide fusion (GPS, HEK-293T) (PSI 1-6); higher = more stable. The note with it: c terminus: a fixed tail appended.
Regarding LVLQRQREARKRALARKQAQEQLR, the protein stability index is 2.79.

Regarding LYLQRQREARKRALARKQAQEQLR, the protein stability index came to 2.52.

In the case of LGLQRQREARKRALARKQAQEQLR, the protein stability index was 2.95.

As to LALQRQREARKRALARKQAQEQLR, the protein stability index came to 3.1.

Regarding LPLQRQREARKRALARKQAQEQLR, the protein stability index was 3.58.

Turning to LNLQRQREARKRALARKQAQEQLR, the protein stability index came to 3.69.

On to LELQRQREARKRALARKQAQEQQR, for which the protein stability index came to 4.35.

For the variant LELQRQREARKRALARKQAQEQDR, the protein stability index was found to be 4.42.

Take LELQRQREARKRALARKQAQEQRR: the protein stability index worked out at 4.16.

With LELQRQREARKRALARKQAQEQWR, the protein stability index was 3.69.

On to LELQRQREARKRALARKQAQEQIR, for which the protein stability index was 3.56.

On to LELQRQREARKRALARKQAQEQVR, for which the protein stability index came to 2.77.

Regarding LELQRQREARKRALARKQAQEQPR, the protein stability index was found to be 3.78.

As to LELQRQREARKRALARKQAQEQFR, the protein stability index amounted to 3.96.

Consider LELQRQREARKRALARKQAQEQYR, for which the protein stability index was found to be 3.9.

Consider LELQRQREARKRALARKQAQEQKR, for which the protein stability index amounted to 3.83.

In the case of LELQRQREARARALARKQAQEQLR, the protein stability index was 3.84.

As for LELQRQREARLRALARKQAQEQLR, the protein stability index amounted to 3.82.

LELQRQREARQRALARKQAQEQLR: the protein stability index worked out at 4.35.

Take LELQRQREARPRALARKQAQEQLR: the protein stability index is 3.82.

As for LELQRQREARTRALARKQAQEQLR, the protein stability index amounted to 3.46.

In the case of LELQRQNEARKRALARKQAQEQLR, the protein stability index was 4.08.

With LELQRQCEARKRALARKQAQEQLR, the protein stability index was determined as 3.87.

On to LELQRQAEARKRALARKQAQEQLR, for which the protein stability index came out at 3.61.

For the variant LELQRQTEARKRALARKQAQEQLR, the protein stability index was 4.43.

Turning to LELQRQSEARKRALARKQAQEQLR, the protein stability index is 4.36.

Consider LELQRQIEARKRALARKQAQEQLR, for which the protein stability index was found to be 3.25.

Regarding LELQRQGEARKRALARKQAQEQLR, the protein stability index is 4.52.

As for LELQRQQEARKRALARKQAQEQLR, the protein stability index is 4.01.

Regarding LELQRQVEARKRALARKQAQEQLR, the protein stability index was 4.02.

Take LELQRQHEARKRALARKQAQEQLR: the protein stability index was determined as 4.29.

Turning to LELQRQMEARKRALARKQAQEQLR, the protein stability index came to 3.52.

Consider LELQRQRPARKRALARKQAQEQLR, for which the protein stability index stood at 3.67.

As to LELQRQRFARKRALARKQAQEQLR, the protein stability index came out at 3.24.

In the case of LELQRQRVARKRALARKQAQEQLR, the protein stability index stood at 3.39.

On to LELQRQRSARKRALARKQAQEQLR, for which the protein stability index came to 3.62.

For the variant LELQRQRKARKRALARKQAQEQLR, the protein stability index came to 3.95.

As to LELQRQRYARKRALARKQAQEQLR, the protein stability index is 3.46.

For LELQRQREARKRALERKQAQEQLR, the protein stability index is 4.31.

LELQRQREARKRALGRKQAQEQLR: the protein stability index came to 4.12.

With LELQRQREARKRALDRKQAQEQLR, the protein stability index was found to be 3.94.

As for LELQRQREARKRALFRKQAQEQLR, the protein stability index is 3.56.

For LELQRQREARKRALKRKQAQEQLR, the protein stability index is 3.57.

On to LELQRQREARKRANARKQAQEQLR, for which the protein stability index is 4.04.

As to LELQRQREARKRAAARKQAQEQLR, the protein stability index was 4.46.

For LELQRQREARKRASARKQAQEQLR, the protein stability index is 4.42.

Consider LELQRQREARKRAYARKQAQEQLR, for which the protein stability index stood at 3.22.

With LELQRQREARKRATARKQAQEQLR, the protein stability index stood at 4.19.

With LELQRQREARKRAGARKQAQEQLR, the protein stability index came to 4.75.

With LELQRQREARKRAEARKQAQEQLR, the protein stability index stood at 4.35.

LELQRQREARKRAPARKQAQEQLR: the protein stability index came to 4.39.

On to LELQRQREARKRAVARKQAQEQLR, for which the protein stability index came to 4.13.

Turning to LELQRQREARKRARARKQAQEQLR, the protein stability index came to 4.4.

On to LELQRQREARKRAMARKQAQEQLR, for which the protein stability index was 3.32.

In the case of LEWQRQREARKRALARKQAQEQLR, the protein stability index stood at 3.52.

For the variant LEAQRQREARKRALARKQAQEQLR, the protein stability index was found to be 4.14.

Take LEPQRQREARKRALARKQAQEQLR: the protein stability index was 4.18.

In the case of LENQRQREARKRALARKQAQEQLR, the protein stability index turned out to be 3.86.

As for LEHQRQREARKRALARKQAQEQLR, the protein stability index is 4.42.

As for LEIQRQREARKRALARKQAQEQLR, the protein stability index stood at 3.74.

In the case of LELQRQREARKRALARKQAQVQLR, the protein stability index came out at 3.31.

With LELQRQREARKRALARKQAQNQLR, the protein stability index was 3.87.

On to LELQRQREARKRALARKQAQKQLR, for which the protein stability index came to 4.28.

Regarding LELQRQREARKRALARKQAQCQLR, the protein stability index came to 3.01.

With LELQRQREARKRALARKQAQDQLR, the protein stability index turned out to be 3.62.

As to LELQRQREARKRALARKQAQPQLR, the protein stability index turned out to be 3.45.

Regarding LELQRQREARKRALARKYAQEQLR, the protein stability index was 2.81.

On to LELQRQREARKRALARKPAQEQLR, for which the protein stability index came to 4.32.

On to LELQRQREARKRALARKHAQEQLR, for which the protein stability index amounted to 3.11.

For the variant LELQRQREARKRALARKWAQEQLR, the protein stability index turned out to be 2.5.

LELQRQREARKRALARKFAQEQLR: the protein stability index amounted to 3.53.

With LELQRQREARKRALARKMAQEQLR, the protein stability index was 3.46.

On to NELQRQREARKRALARKQAQEQLR, for which the protein stability index came to 4.27.

In the case of TELQRQREARKRALARKQAQEQLR, the protein stability index amounted to 3.34.

Take HELQRQREARKRALARKQAQEQLR: the protein stability index is 3.96.

Regarding SELQRQREARKRALARKQAQEQLR, the protein stability index amounted to 3.85.

For the variant IELQRQREARKRALARKQAQEQLR, the protein stability index was determined as 3.29.

Consider MELQRQREARKRALARKQAQEQLR, for which the protein stability index came to 4.24.

Consider VELQRQREARKRALARKQAQEQLR, for which the protein stability index came out at 3.64.

For WELQRQREARKRALARKQAQEQLR, the protein stability index was determined as 2.71.

Take LELQRQREARKRALANKQAQEQLR: the protein stability index came to 4.6.

With LELQRQREARKRALAVKQAQEQLR, the protein stability index was 3.17.

With LELQRQREARKRALATKQAQEQLR, the protein stability index came out at 4.02.

On to LELQRQREARKRALAYKQAQEQLR, for which the protein stability index turned out to be 3.4.

On to LELQRQREARKRALASKQAQEQLR, for which the protein stability index stood at 3.27.

Regarding LELQRQREARKRALAKKQAQEQLR, the protein stability index amounted to 3.93.

For LELQRQREARKRALAMKQAQEQLR, the protein stability index came to 3.39.

Regarding LELQRQREARKQALARKQAQEQLR, the protein stability index was 4.33.

Regarding LELQRQREARKVALARKQAQEQLR, the protein stability index is 3.81.

Turning to LELQRQREARKCALARKQAQEQLR, the protein stability index was 3.9.

LELQRQREARKEALARKQAQEQLR: the protein stability index is 4.71.

Take LELQRQREARKKALARKQAQEQLR: the protein stability index worked out at 3.97.

LELQRQREARKIALARKQAQEQLR: the protein stability index came to 4.21.

On to LELQRQREARKAALARKQAQEQLR, for which the protein stability index worked out at 4.23.
